Here are results for one molecule from US20150368327A1 (YOKOHAMA CITY UNIVERSITY, published 2015).

One assay concerns the target T1, ovalbumin (OVA) (UniProt P01012 2-386).
T1 sequence (looked up): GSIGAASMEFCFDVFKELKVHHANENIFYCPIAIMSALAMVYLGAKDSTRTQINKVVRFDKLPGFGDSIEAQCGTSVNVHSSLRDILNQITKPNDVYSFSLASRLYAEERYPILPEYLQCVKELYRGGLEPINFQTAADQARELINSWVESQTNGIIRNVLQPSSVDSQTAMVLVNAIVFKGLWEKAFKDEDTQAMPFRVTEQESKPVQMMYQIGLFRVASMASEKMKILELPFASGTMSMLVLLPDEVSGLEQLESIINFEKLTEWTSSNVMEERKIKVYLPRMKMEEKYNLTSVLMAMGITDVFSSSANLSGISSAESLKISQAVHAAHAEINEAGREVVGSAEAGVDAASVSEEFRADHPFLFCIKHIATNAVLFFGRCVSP
In words: antigen solid phase ELISA: coated ovalbumin (negative control), anti-mouse IgG2A-HRP, OD450. On the procedure:
(§1) The antigen specificity of the purified antibody was measured by ELISA with PBS buffer. 2.5 μg/mL of antigen was dispensed to a 96 well Maxi Sorp Plate (Nunc) and reacted overnight at 4° C. to coat the plate with an antigen (mouse Sema 3A protein). Ovalbumin, rabbit IgG and skim milk were immobilized in the plate as negative controls in similar manner in order to examine specificity of antibodies. The next day, the plate was washed three times with 200 μL/well of washing solution (PBS containing 0.05% Tween 20), to which was added 200 μL/well of blocking solution (PBS containing 0.5% skim milk) and the mixture was reacted for 30 minutes. The plate was washed three times with 200 μL/well of washing solution, to which was added 100 μL of culture supernatant containing antibody and the mixture was reacted for one hour. The plate was washed five times with 200 μL/well of washing solution, to which was added 100 μL/well of diluent in which anti-mouse IgG2A goat antibody labeled with horseradish peroxidase (HRP) (Bethyl Laboratories, Inc.) was diluted 2000 times with PBS buffer and the mixture was reacted for one hour. […] The absorbance was measured at 450 nm using μQuantBiomolecular Spectrometer (Bio Tek Instruments, Inc.) Results are shown in FIG. 2.
In general terms: ELISA stands for enzyme-linked immunosorbent assay.

For assay [1], the target named is T2, mouse Sema 3A protein (mouse, UniProt O08665 21-772, limits assumed).
T2 construct: Produced from mouse Sema 3A protein expressing cells; also called Mouse Sema 3A antigen
T2 sequence (looked up): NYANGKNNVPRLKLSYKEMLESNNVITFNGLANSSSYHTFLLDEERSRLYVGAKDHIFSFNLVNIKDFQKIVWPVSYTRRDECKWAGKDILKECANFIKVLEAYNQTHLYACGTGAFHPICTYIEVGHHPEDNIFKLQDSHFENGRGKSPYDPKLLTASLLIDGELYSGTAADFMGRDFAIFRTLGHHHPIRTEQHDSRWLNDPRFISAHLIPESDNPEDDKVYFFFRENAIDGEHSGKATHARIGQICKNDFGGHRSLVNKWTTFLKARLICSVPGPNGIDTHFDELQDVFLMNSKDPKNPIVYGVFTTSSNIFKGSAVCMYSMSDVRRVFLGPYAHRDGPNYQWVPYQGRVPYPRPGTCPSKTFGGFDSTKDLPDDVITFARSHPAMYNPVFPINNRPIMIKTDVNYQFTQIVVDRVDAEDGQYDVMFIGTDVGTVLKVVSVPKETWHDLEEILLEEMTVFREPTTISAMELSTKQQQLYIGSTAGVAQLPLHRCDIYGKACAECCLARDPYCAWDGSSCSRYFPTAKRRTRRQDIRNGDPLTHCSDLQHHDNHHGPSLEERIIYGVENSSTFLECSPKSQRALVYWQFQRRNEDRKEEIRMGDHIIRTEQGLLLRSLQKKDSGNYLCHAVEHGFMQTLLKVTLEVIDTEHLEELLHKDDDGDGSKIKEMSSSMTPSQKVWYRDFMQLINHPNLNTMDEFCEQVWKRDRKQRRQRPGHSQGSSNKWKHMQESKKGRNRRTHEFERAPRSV
Briefly: antigen solid phase ELISA: coated mouse Sema 3A (2.5 µg/mL), anti-mouse IgG2A-HRP, OD450. The protocol: as §1

The target in assay [2] is T2, mouse Sema 3A protein. In words: competitive ELISA on plate-coated mouse Sema 3A; competitor biotin-labelled avian-mouse chimeric antibody (clone No. 4-2) at 60 ng/mL. On the procedure:
The obtained clone No. 4-2-derived avian-mouse chimeric antibody in Example 1, the obtained humanized antibodies in Example 2 (Humanized-1 and Humanized-2) and avian-human chimeric antibody were subjected to competitive ELISA to evaluate affinity to the antigen. CL18M (+) avian-mouse chimeric antibody, which served as a negative control, was also measured for affinity to the antigen. Particular measurement conditions were as follows.
Firstly, 2.5 μg/mL of antigen (mouse and human Sema 3A protein) was dispensed into a 384 Well MaxiSorp Plate (Nunc) and reacted overnight at 4° C. in order to coat the plate with the antigen. The next day, the plate was washed three times with 50 μL/well of washing solution (PBS containing 0.05% Tween 20), to which was added 25 μL/well of blocking solution (PBS containing 1% bovine serum albumin) and the mixture was reacted for 30 minutes. Each of humanized antibodies (Humanized-1 and Humanized-2), avian-human chimeric antibody and avian-mouse chimeric antibody was subjected to serial doubling dilution, to which was mixed anti-Sema 3A avian-mouse chimeric antibody labeled with biotin to the final concentration of 60 ng/mL, and the mixture was reacted with the antigen solid phase plate which was washed three times with 50 μL/well of washing solution for one hour. The plate was washed five times with 50 μL/well of washing solution, to which was added 20 μL/well of diluent in which streptavidin labeled with horseradish peroxidase (HRP) (Thermo Fisher Scientific K.K.) was diluted 10000 times with PBS buffer and the mixture was reacted for 30 minutes. The plate was washed five times with 50 μL/well of washing solution, to which was added 20 μL/well of TMB+(Dako) and the mixture was chromogenically reacted for 20 minutes. Subsequently, to the each well was added 20 μL, of 1M sulfuric acid to quench the reaction. The absorbance was measured at 450 nm using Infinite M1000 (Tecan Trading AG).

B1: Anti-Sema 3A avian-mouse chimeric antibody (clone No. 4-2-derived) (antibody, mouse IgG2a)
heavy: AVTLDESGGGLQTPGGALSLVCKASGFTFSSYPMGWVRQAPGKGLEWVAGIDDDGDSDTRYAPAVKGRATISRDNGQSTVRLQLNNLRAEDTGTYYCAKHTGIGANSAGSIDAWGHGTEVIVSSAKTTAPSVYPLAPVCGDTTGSSVTLGCLVKGYFPEPVTLTWNSGSLSSGVHTFPAVLQSDLYTLSSSVTVTSSTWPSQSITCNVAHPASSTKVDKKIEPRGPTIKPCPPCKCPAPNLLGGPSVFIFPPKIKDVLMISLSPIVTCVVVDVSEDDPDVQISWFVNNVEVHTAQTQTHREDYNSTLRVVSALPIQHQDWMSGKEFKCKVNNKDLPAPIERTISKPKGSVRAPQVYVLPPPEEEMTKKQVTLTCMVTDFMPEDIYVEWTNNGKTELNYKNTEPVLDSDGSYFMYSKLRVEKKNWVERNSYSCSVVHEGLHNHHTTKSFSRTPGK
light: ALTQPASVSANLGGTVKITCSGGGSYTGSYYYGWYQQKSPGSALVTMIYYNNKRPSDIPSRFSGSLSGSTNTLTITGVRADDEAVYFCGSADNSGDAFGAGTTLTVLGQPKSSPSVTLFPPSSEELETNKATLVCTITDFYPGVVTVDWKVDGTPVTQGMETTQPSKQSNNKYMASSYLTLTARAWERHSSYSCQVTHEGHTVEKSLSRADCS
notes: Avian variable regions of clone No. 4-2 with mouse IgG2a heavy and mouse lambda light constant regions; also called anti-Sema 3A avian-mouse chimeric antibody (IgG)
What is called EC50 (read off the curve) is the concentration needed to bring the measured effect to its halfway point. By IC50 is commonly meant the concentration that gives 50% inhibition. Lower therefore signals higher potency. As for B1, the binding result in the assay with ovalbumin (OVA) is given as “no binding (tested: 100 ng/µL)”. Further, in the assay with mouse Sema 3A protein [1], the “EC50 (read off the curve)” value is around 0.01 µg/mL. In the assay with mouse Sema 3A protein [2], the IC50 came out at 0.147 µg/mL.
